Experimental findings from paper PMC5686127 (2017) are described below.

Test [1] addresses CHD4 PHD1 (aa 362–417) (human, UniProt Q14839 362-417). The test can be described thus: 150 mM NaCl.
Test [2] deals with CHD4 PHD1/2 (aa 361–503) (human, UniProt Q14839 361-503). Kind of test: 150 mM NaCl.
Test [3] concerns the target CHD4 PHD2 (443–498) (human, UniProt Q14839 443-498). The test can be described thus: 150 mM NaCl.
The target in test [4] is CHD4 linker-PHD2 (aa 414–503) (human, UniProt Q14839 414-503). Kind of test: 150 mM NaCl.
Sequence of CHD4 linker-PHD2 (aa 414–503) (Q14839 414-503): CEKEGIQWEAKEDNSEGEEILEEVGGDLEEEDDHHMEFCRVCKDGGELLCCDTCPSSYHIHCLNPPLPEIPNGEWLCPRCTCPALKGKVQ
Test [5] has as its target T1, CHD4 PHD1-linker (aa 361–443) (human, UniProt Q14839 361-443). The test can be described thus: 150 mM NaCl.
For test [6], the target named is T1, CHD4 PHD1-linker (aa 361–443). The test can be described thus: 75 mM NaCl.

The Kd is the equilibrium constant for the complex coming apart.

T1 sequence (Q14839 361-443): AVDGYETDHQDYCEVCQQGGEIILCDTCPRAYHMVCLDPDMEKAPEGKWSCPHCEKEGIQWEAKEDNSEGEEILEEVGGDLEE
Sequence of CHD4 PHD1 (aa 362–417) (Q14839 362-417): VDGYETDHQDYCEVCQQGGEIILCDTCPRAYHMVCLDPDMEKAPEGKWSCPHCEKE
Sequence of CHD4 PHD1/2 (aa 361–503) (Q14839 361-503): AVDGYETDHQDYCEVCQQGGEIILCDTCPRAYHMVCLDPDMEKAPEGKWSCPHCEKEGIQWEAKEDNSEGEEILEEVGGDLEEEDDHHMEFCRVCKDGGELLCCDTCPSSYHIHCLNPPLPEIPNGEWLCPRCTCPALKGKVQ
Sequence of CHD4 PHD2 (443–498) (Q14839 443-498): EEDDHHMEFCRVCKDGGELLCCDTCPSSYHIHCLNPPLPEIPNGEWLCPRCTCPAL

B1: histone H3 peptide (aa 1–12) (peptide)
peptide: ARTKQTARKSTG
Regarding B1, the Kd in test [1] is 18000 nM; in test [2], 220 nM; in test [3], 3000 nM; in test [4], 270 nM; in test [5], 500 nM; in test [6] it was 300 nM.
